Source: article PMC7242440 (2020)

Key:
[1] = target: Mpa (Mycobacterium tuberculosis) (UniProt P9WQN5); details: cited from earlier work
Mpa = target: T1, Mpa (Mycobacterium tuberculosis, UniProt P9WQN5); experiment: NMR
T1 chain: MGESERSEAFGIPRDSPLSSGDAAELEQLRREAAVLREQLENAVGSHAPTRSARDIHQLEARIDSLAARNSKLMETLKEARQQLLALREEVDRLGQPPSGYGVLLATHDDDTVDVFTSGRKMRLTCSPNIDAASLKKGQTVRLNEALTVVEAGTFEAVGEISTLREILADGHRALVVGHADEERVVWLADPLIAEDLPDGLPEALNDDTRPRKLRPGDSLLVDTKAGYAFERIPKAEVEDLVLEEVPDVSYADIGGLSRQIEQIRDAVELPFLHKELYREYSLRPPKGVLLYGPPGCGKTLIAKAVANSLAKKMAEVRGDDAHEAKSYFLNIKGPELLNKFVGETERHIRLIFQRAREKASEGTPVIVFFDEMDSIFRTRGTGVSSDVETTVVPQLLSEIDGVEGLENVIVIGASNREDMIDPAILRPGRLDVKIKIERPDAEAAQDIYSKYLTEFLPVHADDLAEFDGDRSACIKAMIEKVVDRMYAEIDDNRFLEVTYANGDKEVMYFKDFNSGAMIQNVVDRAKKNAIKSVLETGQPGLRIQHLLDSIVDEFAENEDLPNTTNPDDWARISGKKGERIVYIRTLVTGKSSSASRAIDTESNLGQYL

Molecule: Pup (from UniProt P9WHN5)
- Kd [1]: 3.5 µM

B1: Pup (protein)
chain: MAQEQTKRGGGGGDDDDIAGSTAAGQERREKLTEETDDLLDEIDDVLEENAEDFVRAYVQKGGQ
- Kd (Mpa): ~28 µM
